The Human Domainome abundance scans (Beltran et al. 2025)
± gives the uncertainty stated by the source.

B1: Lysine-specific demethylase 2B, residues 656 to 722; numbered along this chain, Q8NHM5 (parent)
chain: LPHTAVCLVCGEAGKEDTVEEEEGKFNLMLMECSICNEIIHPGCLKIKESEGVVNDELPNCWECPKC

Variants of: B1
Assay: abundance fitness (aPCA) (normalised: wild type 0, dead -1); higher = more abundant; growth selection in yeast, the domain comes from the species named
Conditions: Homo sapiens

Abundance fitness of substitutions, site by site:
E49: S -0.061 ± 0.088 | T 0.045 ± 0.07 | W -0.235 ± 0.12 | D -0.198 ± 0.21
C33: R -0.593 ± 0.12 | G -0.629 ± 0.1 | S -0.716 ± 0.22 | M -0.642 ± 0.14 | V -1.24 ± 0.22 | P -0.729 ± 0.19 | N -0.481 ± 0.29 | Q -0.581 ± 0.21 | A -0.912 ± 0.2 | D -0.852 ± 0.24 | E -0.619 ± 0.14 | K -0.6 ± 0.17 | W -1.02 ± 0.27 | L -0.765 ± 0.15 | T -0.753 ± 0.19 | Y -0.621 ± 0.44
C36: W -1.38 ± 0.23 | T -0.961 ± 0.26 | S -0.994 ± 0.22 | A -0.78 ± 0.16 | D -0.549 ± 0.26 | G -0.794 ± 0.09 | L -0.643 ± 0.18 | N -0.707 ± 0.24 | H -1.18 ± 0.43 | F -1.21 ± 0.43 | E -0.736 ± 0.14 | M -0.619 ± 0.21 | I -0.477 ± 0.25 | R -0.72 ± 0.091 | V -0.921 ± 0.13
I47: M 0.16 ± 0.097 | V 0.006 ± 0.068 | L -0.133 ± 0.072 | N -0.307 ± 0.29 | F -0.047 ± 0.19 | C -0.168 ± 0.11 | Q -0.167 ± 0.18 | R -0.207 ± 0.067 | K -0.17 ± 0.13 | G 0.011 ± 0.087 | W -0.09 ± 0.083 | Y -0.007 ± 0.22 | H -0.242 ± 0.28 | E 0.038 ± 0.11 | D -0.261 ± 0.24 | S -0.002 ± 0.076 | T 0.08 ± 0.11 | A -0.014 ± 0.11
E38: C -0.291 ± 0.14 | Q -0.098 ± 0.12 | F -0.69 ± 0.29 | M 0.066 ± 0.072 | W -0.163 ± 0.11 | K -0.206 ± 0.33 | S -0.06 ± 0.093 | R 0.104 ± 0.07 | T -0.57 ± 0.2 | H -0.566 ± 0.44 | D -0.294 ± 0.35 | N -0.402 ± 0.16 | P -0.723 ± 0.29 | V -0.13 ± 0.073 | G -0.286 ± 0.063 | I -0.085 ± 0.13 | A -0.356 ± 0.093
L45: Q 0.069 ± 0.16 | P -0.515 ± 0.19 | H -0.188 ± 0.18 | M 0.032 ± 0.12 | D -0.483 ± 0.17 | V -0.092 ± 0.074 | I -0.434 ± 0.41 | A -0.224 ± 0.2 | G -0.114 ± 0.081 | W -0.493 ± 0.15 | E -0.547 ± 0.2 | F -0.286 ± 0.18 | R -0.002 ± 0.056 | K -0.402 ± 0.058 | S 0.081 ± 0.097 | T -0.085 ± 0.1
N37: H 0.081 ± 0.12 | Y 0.137 ± 0.12 | R 0.111 ± 0.066 | F -0.233 ± 0.2 | E 0.02 ± 0.1 | K 0.095 ± 0.2 | M -0.062 ± 0.097 | Q 0.183 ± 0.1 | A 0.094 ± 0.085 | V -1.3 ± 0.25 | C 0.34 ± 0.33 | G 0.092 ± 0.059 | S 0.057 ± 0.096 | D -0.026 ± 0.16 | T -0.369 ± 0.24 | W -0.267 ± 0.1
S34: E -0.469 ± 0.21 | T 0.082 ± 0.2 | P -0.456 ± 0.16 | C -0.053 ± 0.18 | L -0.36 ± 0.14 | H -0.03 ± 0.23 | D -0.153 ± 0.18 | G -0.106 ± 0.082 | R -0.229 ± 0.092 | I -0.058 ± 0.1 | W -0.545 ± 0.15 | V -0.078 ± 0.096 | A -0.273 ± 0.13 | Q 0.027 ± 0.12 | K -0.021 ± 0.11
I39: N 0.056 ± 0.15 | G -0.141 ± 0.067 | C -0.216 ± 0.23 | A -0.029 ± 0.068 | K -0.021 ± 0.12 | W -0.157 ± 0.095 | V 0.013 ± 0.074 | M 0.119 ± 0.11 | E -0.256 ± 0.085 | H 0.245 ± 0.16 | P -0.055 ± 0.13 | S -0.129 ± 0.086 | Y 0.076 ± 0.11 | R 0.138 ± 0.065 | L -0.125 ± 0.073 | T -0.053 ± 0.13 | Q 0.257 ± 0.089
I40: W -0.473 ± 0.11 | G -0.229 ± 0.067 | R -0.2 ± 0.07 | P -0.72 ± 0.12 | H 0.1 ± 0.2 | L -0.154 ± 0.072 | E -0.599 ± 0.086 | T 0.126 ± 0.079 | Y -0.257 ± 0.25 | Q -0.192 ± 0.056 | A 0.008 ± 0.064 | C -0.06 ± 0.16 | N 0.171 ± 0.15 | F -0.579 ± 0.31 | S 0.096 ± 0.074 | K -0.368 ± 0.12 | V 0.215 ± 0.074
M31: W -0.229 ± 0.089 | V -0.276 ± 0.12 | S -0.446 ± 0.14 | C -0.219 ± 0.22 | R -0.141 ± 0.085 | P -0.847 ± 0.15 | H -0.25 ± 0.12 | I -0.238 ± 0.11 | K -0.093 ± 0.098 | G -0.485 ± 0.16 | L -0.053 ± 0.1 | T -0.405 ± 0.16 | F -0.272 ± 0.16 | Q -0.662 ± 0.28 | A -0.18 ± 0.093 | Y -0.317 ± 0.18
